Results on 68 molecules are retold here after patent publication US20170189511A1.

Some results are limits rather than exact numbers.

For the test, the target named is HLA-A*24 (peptide-receptive MHC class I monomer of the UV-ligand exchange assay) (human). Description: UV-ligand exchange with anti-b2m ELISA. (In general: ELISA stands for enzyme-linked immunosorbent assay.)
As to YFDKVVTL [Peptide SEQ ID NO: 215 (YFDKVVTL)], the peptide exchange yield lay within 20 to 49%.

In turn, TYLRDQHFL [Peptide SEQ ID NO: 187 (…)] showed a peptide exchange yield of more than 75%.

Regarding IYDDSFIRPVTF [Peptide SEQ ID NO: 180 (…)], the peptide exchange yield lay within 50 to 75%.

As for FYSRLLQKF [Peptide SEQ ID NO: 203 (…)], the peptide exchange yield lay within 50 to 75%.

WYVNGVNYF [Peptide SEQ ID NO: 189 (…)] returned a peptide exchange yield of 20 to 49%.

As for KYTSWYVAL [Peptide SEQ ID NO: 228 (…)], the peptide exchange yield was more than 75%.

The molecule TYTQDFNKF [Peptide SEQ ID NO: 208 (…)] came in with a peptide exchange yield of 50 to 75%.

Molecule VFTSTARAF [Peptide SEQ ID NO: 183 (…)] returned a peptide exchange yield of 50 to 75%.

Consider KYMVYPQTF [Peptide SEQ ID NO: 267 (…)], for which the peptide exchange yield is more than 75%.

On to RYSTGLAGNLL [Peptide SEQ ID NO: 221 (…)], for which the peptide exchange yield was in the range of 50 to 75%.

As to IFIEVFSHF [Peptide SEQ ID NO: 178 (…)], the peptide exchange yield was in the range of 50 to 75%.

With AYLHSHALI [Peptide SEQ ID NO: 274 (…)], the peptide exchange yield was more than 75%.

Molecule VYTLDIPVL [Peptide SEQ ID NO: 160 (…)] gave a peptide exchange yield of more than 75%.

With LFIPSSKLLFL [Peptide SEQ ID NO: 171 (…)], the peptide exchange yield is 50 to 75%.

VFTRVSSFL [Peptide SEQ ID NO: 162 (…)] had a peptide exchange yield of 50 to 75%.

Molecule MYDSYWRQF [Peptide SEQ ID NO: 179 (…)] showed a peptide exchange yield of more than 75%.

Molecule IFLDYEAGTLSF [Peptide SEQ ID NO: 227 (…)] returned a peptide exchange yield of more than 75%.

SYALLTYMI [Peptide SEQ ID NO: 192 (…)] returned a peptide exchange yield of more than 75%.

VYEDQVGKF [Peptide SEQ ID NO: 170 (…)]: the peptide exchange yield is 20 to 49%.

Regarding YYLEVGKTLI [Peptide SEQ ID NO: 211 (…)], the peptide exchange yield is more than 75%.

QYLENLEKL [Peptide SEQ ID NO: 224 (…)]: the peptide exchange yield lay in the range of 50 to 75%.

In turn, LYLKLWNLI [Peptide SEQ ID NO: 214 (…)] displayed a peptide exchange yield of 50 to 75%.

As for KYPVEWAKF [Peptide SEQ ID NO: 289 (…)], the peptide exchange yield is more than 75%.

In the case of QYLQDAYSF [Peptide SEQ ID NO: 272 (…)], the peptide exchange yield was more than 75%.

Molecule QYSSVFKSL [Peptide SEQ ID NO: 216 (…)] had a peptide exchange yield of more than 75%.

Molecule KYQDILETI [Peptide SEQ ID NO: 168 (…)] displayed a peptide exchange yield of more than 75%.

On to RYFKGLVF [Peptide SEQ ID NO: 188 (RYFKGLVF)], for which the peptide exchange yield was in the range of 50 to 75%.

Molecule IYLVSIPEL [Peptide SEQ ID NO: 161 (…)] returned a peptide exchange yield of more than 75%.

The molecule RYLNKAFHI [Peptide SEQ ID NO: 284 (…)] showed a peptide exchange yield of 50 to 75%.

In turn, VFKASKITF [Peptide SEQ ID NO: 191 (…)] had a peptide exchange yield of 50 to 75%.

Take EYPLVINTL [Peptide SEQ ID NO: 219 (…)]: the peptide exchange yield was 50 to 75%.

Take EYQENFLSF [Peptide SEQ ID NO: 206 (…)]: the peptide exchange yield was in the range of 50 to 75%.

Turning to DYTTWTALL [Peptide SEQ ID NO: 165 (…)], the peptide exchange yield is more than 75%.

YYVESGKLF [Peptide SEQ ID NO: 166 (…)] registered a peptide exchange yield of more than 75%.

In turn, TYTTVPRVAF [Peptide SEQ ID NO: 172 (…)] returned a peptide exchange yield of more than 75%.

For RYISDQLFTNF [Peptide SEQ ID NO: 278 (…)], the peptide exchange yield was more than 75%.

VFQNFPLLF [Peptide SEQ ID NO: 184 (…)] returned a peptide exchange yield of more than 75%.

Take VYPWLGALL [Peptide SEQ ID NO: 177 (…)]: the peptide exchange yield is more than 75%.

Consider TYIESASEL [Peptide SEQ ID NO: 279 (…)], for which the peptide exchange yield is 50 to 75%.

With RFHPTPLLL [Peptide SEQ ID NO: 193 (…)], the peptide exchange yield is more than 75%.

For RYPDNLKHL [Peptide SEQ ID NO: 286 (…)], the peptide exchange yield fell in the range of 20 to 49%.

As to EFGSLHLEFL [Peptide SEQ ID NO: 194 (…)], the peptide exchange yield is less than 20%.

LYLDKATLI [Peptide SEQ ID NO: 198 (…)] displayed a peptide exchange yield of 50 to 75%.

As to FFPPTRQMGLLF [Peptide SEQ ID NO: 217 (…)], the peptide exchange yield is more than 75%.

With GFFIFNERF [Peptide SEQ ID NO: 190 (…)], the peptide exchange yield was in the range of 50 to 75%.

In turn, YYVYIMNHL [Peptide SEQ ID NO: 225 (…)] registered a peptide exchange yield of 50 to 75%.

Turning to RYPDNLKHLYL [Peptide SEQ ID NO: 280 (…)], the peptide exchange yield was more than 75%.

The molecule VYGFQWRHF [Peptide SEQ ID NO: 276 (…)] yielded a peptide exchange yield of more than 75%.

As for IYKVGAPTI [Peptide SEQ ID NO: 185 (…)], the peptide exchange yield lay in the range of 50 to 75%.

Molecule LYLDIINLF [Peptide SEQ ID NO: 181 (…)] came in with a peptide exchange yield of more than 75%.

For LYNKGFIYL [Peptide SEQ ID NO: 159 (…)], the peptide exchange yield was more than 75%.

For the molecule NYINRILKL [Peptide SEQ ID NO: 167 (…)], the peptide exchange yield was more than 75%.

IYQLDTASI [Peptide SEQ ID NO: 182 (…)]: the peptide exchange yield is 50 to 75%.

KFVDSTFYL [Peptide SEQ ID NO: 282 (…)] had a peptide exchange yield of more than 75%.

The molecule VYVSDIQEL [Peptide SEQ ID NO: 288 (…)] returned a peptide exchange yield of 50 to 75%.

As for KFSSFSLFF [Peptide SEQ ID NO: 164 (…)], the peptide exchange yield was 50 to 75%.

VHIPEVYLI [Peptide SEQ ID NO: 205 (…)] showed a peptide exchange yield of 50 to 75%.

Consider EYINQGDLHEF [Peptide SEQ ID NO: 275 (…)], for which the peptide exchange yield lay in the range of 50 to 75%.

As for HYSQELSLLYL [Peptide SEQ ID NO: 158 (…)], the peptide exchange yield is more than 75%.

The molecule DYLKGLASF [Peptide SEQ ID NO: 163 (…)] had a peptide exchange yield of more than 75%.

Consider VYRDETGELF [Peptide SEQ ID NO: 226 (…)], for which the peptide exchange yield was in the range of 50 to 75%.

Turning to IFPQFLYQF [Peptide SEQ ID NO: 186 (…)], the peptide exchange yield was more than 75%.

As to TYGDAGLTYTF [Peptide SEQ ID NO: 283 (…)], the peptide exchange yield was in the range of 50 to 75%.

Regarding AYTLIAPNI [Peptide SEQ ID NO: 169 (…)], the peptide exchange yield was in the range of 50 to 75%.

LYHDIFSRL [Peptide SEQ ID NO: 271 (…)]: the peptide exchange yield is more than 75%.

For the molecule TYIKPISKL [Peptide SEQ ID NO: 273 (…)], the peptide exchange yield was in the range of 50 to 75%.

In turn, KYIPYKYVI [Peptide SEQ ID NO: 223 (…)] displayed a peptide exchange yield of 50 to 75%.

In the case of IYTMIYRNL [Peptide SEQ ID NO: 210 (…)], the peptide exchange yield is more than 75%.
